In patent US20170334973A1:
Read-outs that look alike come from different tables or passages of the source.

Tests used:
RESTV GP (Reston virus) [1] = target: RESTV GP (Reston virus) (UniProt Q66799)
EBOV GPdTM (Ebola virus) [2] = target: EBOV GPdTM (Ebola virus) (UniProt Q05320)
SUDV GPdTM (Sudan virus) [3] = target: SUDV GPdTM (Sudan virus) (UniProt Q66814)
EBOV GPdTM (Ebola virus) [4] = target: EBOV GPdTM (Ebola virus) (UniProt Q05320); remark: listed apart in the source
SUDV GPdTM (Sudan virus) [5] = target: SUDV GPdTM (Sudan virus) (UniProt Q66814); remark: listed apart in the source
RESTV GP (Reston virus) [6] = target: RESTV GP (Reston virus) (UniProt Q66799); remark: listed apart in the source
EBOV GPdTM (Ebola virus) [7] = target: EBOV GPdTM (Ebola virus) (UniProt Q05320); remark: listed apart in the source
SUDV GPdTM (Sudan virus) [8] = target: SUDV GPdTM (Sudan virus) (UniProt Q66814); remark: listed apart in the source

Substance: FVM09 (antibody)
- EC50 (RESTV GP (Reston virus) [1]): < 0.015 µg/mL
- EC50 (EBOV GPdTM (Ebola virus) [2]): < 0.015 µg/mL
- EC50 (SUDV GPdTM (Sudan virus) [3]): < 0.015 µg/mL
- EC50 (EBOV GPdTM (Ebola virus) [4]): 7.2 nM
- EC50 (SUDV GPdTM (Sudan virus) [5]): 9.73 nM
- EC50 (RESTV GP (Reston virus) [6]): 0.01 µg/mL
- EC50 (EBOV GPdTM (Ebola virus) [7]): 0.008 µg/mL
- EC50 (SUDV GPdTM (Sudan virus) [8]): 0.011 µg/mL
